Results on 1 molecule are retold here after US20230190900 (published 2023).

In experiment [1] the target is T1, human FcγRI (CD64) (human, UniProt P12314).
T1 chain: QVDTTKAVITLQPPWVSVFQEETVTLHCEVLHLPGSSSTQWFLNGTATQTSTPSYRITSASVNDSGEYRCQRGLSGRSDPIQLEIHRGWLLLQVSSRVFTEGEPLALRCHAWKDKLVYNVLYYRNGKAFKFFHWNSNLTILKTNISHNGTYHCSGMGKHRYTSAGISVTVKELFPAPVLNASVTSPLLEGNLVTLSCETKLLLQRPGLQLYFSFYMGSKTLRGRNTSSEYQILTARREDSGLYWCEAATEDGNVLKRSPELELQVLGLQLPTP
Description: SPR. For orientation: SPR reads the build-up and loss of mass on a sensor chip optically.

Experiment [2] addresses T2, human FcγRIIc (CD32C) (human, UniProt P31995).
T2 chain: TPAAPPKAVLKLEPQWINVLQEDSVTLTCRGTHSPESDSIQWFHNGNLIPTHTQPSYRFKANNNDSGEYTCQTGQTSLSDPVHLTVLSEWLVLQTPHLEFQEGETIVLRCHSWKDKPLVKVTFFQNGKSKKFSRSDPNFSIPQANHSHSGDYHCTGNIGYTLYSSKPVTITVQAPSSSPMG
Kind of experiment: SPR.

Experiment [3] deals with T3, cynomolgus FcRn (cynomolgus, UniProt Q8SPV9).
T3 chain 1: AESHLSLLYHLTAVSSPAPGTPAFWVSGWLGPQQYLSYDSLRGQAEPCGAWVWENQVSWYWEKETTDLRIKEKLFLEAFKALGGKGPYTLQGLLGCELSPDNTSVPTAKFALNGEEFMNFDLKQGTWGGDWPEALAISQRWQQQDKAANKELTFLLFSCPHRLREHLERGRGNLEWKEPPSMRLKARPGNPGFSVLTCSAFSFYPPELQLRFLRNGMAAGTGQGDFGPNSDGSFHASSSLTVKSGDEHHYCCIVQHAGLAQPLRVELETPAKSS
T3 chain 2: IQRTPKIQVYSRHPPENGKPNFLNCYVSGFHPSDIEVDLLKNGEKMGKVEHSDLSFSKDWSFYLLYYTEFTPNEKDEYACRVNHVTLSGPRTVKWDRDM
Kind of experiment: SPR, pH 6.0.

Experiment [4] has as its target T4, murine FcγRIIb (mouse, UniProt P08101).
T4 chain: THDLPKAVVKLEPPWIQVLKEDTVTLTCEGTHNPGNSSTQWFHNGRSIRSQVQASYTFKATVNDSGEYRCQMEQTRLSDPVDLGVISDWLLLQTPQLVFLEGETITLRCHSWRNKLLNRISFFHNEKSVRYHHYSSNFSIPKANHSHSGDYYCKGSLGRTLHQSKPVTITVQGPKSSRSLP
Description: SPR.

Experiment [5] addresses T5, murine FcγRI (mouse, UniProt P26151).
T5 chain: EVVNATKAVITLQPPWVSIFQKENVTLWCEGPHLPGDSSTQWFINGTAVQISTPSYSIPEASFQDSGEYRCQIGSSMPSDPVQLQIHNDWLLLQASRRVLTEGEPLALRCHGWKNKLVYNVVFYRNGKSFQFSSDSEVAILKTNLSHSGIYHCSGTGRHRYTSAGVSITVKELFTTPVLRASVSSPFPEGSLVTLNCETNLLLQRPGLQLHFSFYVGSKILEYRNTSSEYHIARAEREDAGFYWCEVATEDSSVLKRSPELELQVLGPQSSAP
Description: SPR.

Experiment [6] deals with T6, human FcγRIIb (CD32B) (human, UniProt P31994).
T6 chain: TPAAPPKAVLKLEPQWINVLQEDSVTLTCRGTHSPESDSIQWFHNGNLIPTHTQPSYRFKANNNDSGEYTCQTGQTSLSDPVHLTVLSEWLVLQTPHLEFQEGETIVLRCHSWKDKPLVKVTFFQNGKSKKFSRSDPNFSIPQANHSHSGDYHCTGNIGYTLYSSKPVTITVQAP
Description: SPR.

The target in experiment [7] is T7, human FcγRIIa (CD32A) (human, UniProt P12318).
T7 chain: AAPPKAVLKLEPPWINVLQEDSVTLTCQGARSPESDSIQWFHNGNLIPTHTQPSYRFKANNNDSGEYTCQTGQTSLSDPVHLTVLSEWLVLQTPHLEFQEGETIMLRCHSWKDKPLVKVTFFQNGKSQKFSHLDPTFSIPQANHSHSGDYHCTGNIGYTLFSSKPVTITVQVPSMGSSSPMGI
Kind of experiment: SPR.

Experiment [8] addresses T8, murine FcRn (mouse, UniProt Q61559).
T8 chain 1: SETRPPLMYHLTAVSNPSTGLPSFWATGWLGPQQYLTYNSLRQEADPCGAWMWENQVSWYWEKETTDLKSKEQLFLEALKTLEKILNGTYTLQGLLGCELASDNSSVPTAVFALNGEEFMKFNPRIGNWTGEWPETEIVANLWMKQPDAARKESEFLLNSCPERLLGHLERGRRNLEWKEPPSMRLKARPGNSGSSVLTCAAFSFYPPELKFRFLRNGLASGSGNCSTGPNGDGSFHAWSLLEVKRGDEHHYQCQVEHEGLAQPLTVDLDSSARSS
T8 chain 2: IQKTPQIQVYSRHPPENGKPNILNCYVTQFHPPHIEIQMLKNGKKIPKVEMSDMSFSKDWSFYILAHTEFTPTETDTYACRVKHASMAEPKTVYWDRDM
Description: SPR, pH 6.0.

Experiment [9] addresses T9, murine FcγRIII (mouse, UniProt P08508).
T9 chain: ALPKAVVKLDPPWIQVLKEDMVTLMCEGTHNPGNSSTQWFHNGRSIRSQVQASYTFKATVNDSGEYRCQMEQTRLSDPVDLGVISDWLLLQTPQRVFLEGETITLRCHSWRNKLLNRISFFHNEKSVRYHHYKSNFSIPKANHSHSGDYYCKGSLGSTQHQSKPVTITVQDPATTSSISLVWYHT
Kind of experiment: SPR.

Experiment [10] deals with T10, human FcγRIIIb (NA1) CD16B (human, UniProt O75015).
T10 chain: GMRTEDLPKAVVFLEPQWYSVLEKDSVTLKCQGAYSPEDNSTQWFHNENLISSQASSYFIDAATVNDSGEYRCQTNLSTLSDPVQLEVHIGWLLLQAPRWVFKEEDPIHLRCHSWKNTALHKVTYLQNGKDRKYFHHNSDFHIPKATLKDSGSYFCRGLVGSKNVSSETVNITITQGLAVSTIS
Kind of experiment: SPR.

The target of experiment [11] is T11, murine FcγRIV (CD16-2) (mouse, UniProt A0A0B4J1G0).
T11 chain: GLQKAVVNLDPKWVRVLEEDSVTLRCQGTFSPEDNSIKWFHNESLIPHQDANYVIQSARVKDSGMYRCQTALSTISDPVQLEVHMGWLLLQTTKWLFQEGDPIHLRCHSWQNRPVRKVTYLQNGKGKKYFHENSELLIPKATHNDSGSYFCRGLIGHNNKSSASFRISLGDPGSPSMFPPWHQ
Kind of experiment: SPR.

Experiment [12] concerns the target T12, cynomolgus FcγRIIa (CD32A) (cynomolgus).
T12 chain: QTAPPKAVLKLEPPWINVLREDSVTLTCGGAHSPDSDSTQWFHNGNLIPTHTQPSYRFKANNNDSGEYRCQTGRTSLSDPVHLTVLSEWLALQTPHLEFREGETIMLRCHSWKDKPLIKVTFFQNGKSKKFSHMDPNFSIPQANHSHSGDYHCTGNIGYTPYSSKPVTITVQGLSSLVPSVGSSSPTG
Kind of experiment: SPR.

The target in experiment [13] is human FcRn (human, UniProt P55899). Description: SPR, pH 6.0.

B1: Bi-scFv-Fc_02 (full) (antibody)
chain 1: SYVLTQPSSVSVAPGQTATISCGGHNIGSKNVHWYQQRPGQSPVLVIYQDNKRPSGIPERFSGSNSGNTATLTISGTQAMDEADYYCQVWDNYSVLFGGGTKLTVLGGSGGSGGSGGSGGSGGSGGSQVQLVQSGAEVKKPGESLKVSCKASGYTFTSYYMHWVRQAPGQGLEWMGIINPSGGSTSYAQKFQGRVTMTRDTSTSTVYMELSSLRSEDTAVYYCARGSAYYYDFADYWGQGTLVTVSSEPKSCDKTHTCPPCPAPEFEGGPSVFLFPPKPKDTLMISRTPEVTCVVVAVSHEDPEVKFNWYVDGVEVHNAKTKPREEQYNSTYRVVSVLTVLHQDWLNGKEYKCKVSNKALPAPIEKTISKAKGQPREPQVYTLPPSREEMTKNQVSLTCLVKGFYPSDIAVEWESNGQPENNYKTTPPVLDSDGSFFLYSKLTVDKSRWQQGNVFSCSVMHEALHNHYTQKSLSLSPGGGGGSGGGGSQVQLQESGPGLVKPSETLSLTCTVSGGSVSSGSYYWSWIRQPPGKGLEWIGYIYYSGSTNYNPSLKSRVTISVDTSKNQFSLKLSSVTAADTAVYYCARNPISIPAFDIWGQGTMVTVSSGGSGGSGGSGGSGGSGGSQPVLTQPPSVSVAPGKTARITCGGNNIGSKSVHWYQQKPGQAPVLVIYYDSDRPSGIPERFSGSNSGNTATLTISRVEAGDEADYYCQVWDTSSDHVLFGGGTKLTVL
chain 2: B1 chain 1
As for B1, the binding result in experiment [1], in experiment [2], in experiment [4], in [5], in [6] and in experiment [7] was “no binding” throughout. The binding result in experiment [9], in experiment [10], in experiment [11] and in experiment [12] was “no binding” each time. Also, the Kd in experiment [3] was 268 nM; in experiment [8], 121 nM; in [13], 410 nM.

Usually Kd stands for a measure of binding affinity in units of concentration.
